Test results as given in US20140120128A1.

Tests used:
Assay in all cases: cell-based or functional assay
[1] = molecular target: human TLR7 expressed on HEK293 cells (human) (UniProt Q9NYK1)
[2] = molecular target: human TLR2 expressed on HEK293 cells (human) (UniProt O60603)
[3] = molecular target: T1, human TLR9 expressed on HEK293 cells (human) (UniProt Q9NR96)
T1 sequence: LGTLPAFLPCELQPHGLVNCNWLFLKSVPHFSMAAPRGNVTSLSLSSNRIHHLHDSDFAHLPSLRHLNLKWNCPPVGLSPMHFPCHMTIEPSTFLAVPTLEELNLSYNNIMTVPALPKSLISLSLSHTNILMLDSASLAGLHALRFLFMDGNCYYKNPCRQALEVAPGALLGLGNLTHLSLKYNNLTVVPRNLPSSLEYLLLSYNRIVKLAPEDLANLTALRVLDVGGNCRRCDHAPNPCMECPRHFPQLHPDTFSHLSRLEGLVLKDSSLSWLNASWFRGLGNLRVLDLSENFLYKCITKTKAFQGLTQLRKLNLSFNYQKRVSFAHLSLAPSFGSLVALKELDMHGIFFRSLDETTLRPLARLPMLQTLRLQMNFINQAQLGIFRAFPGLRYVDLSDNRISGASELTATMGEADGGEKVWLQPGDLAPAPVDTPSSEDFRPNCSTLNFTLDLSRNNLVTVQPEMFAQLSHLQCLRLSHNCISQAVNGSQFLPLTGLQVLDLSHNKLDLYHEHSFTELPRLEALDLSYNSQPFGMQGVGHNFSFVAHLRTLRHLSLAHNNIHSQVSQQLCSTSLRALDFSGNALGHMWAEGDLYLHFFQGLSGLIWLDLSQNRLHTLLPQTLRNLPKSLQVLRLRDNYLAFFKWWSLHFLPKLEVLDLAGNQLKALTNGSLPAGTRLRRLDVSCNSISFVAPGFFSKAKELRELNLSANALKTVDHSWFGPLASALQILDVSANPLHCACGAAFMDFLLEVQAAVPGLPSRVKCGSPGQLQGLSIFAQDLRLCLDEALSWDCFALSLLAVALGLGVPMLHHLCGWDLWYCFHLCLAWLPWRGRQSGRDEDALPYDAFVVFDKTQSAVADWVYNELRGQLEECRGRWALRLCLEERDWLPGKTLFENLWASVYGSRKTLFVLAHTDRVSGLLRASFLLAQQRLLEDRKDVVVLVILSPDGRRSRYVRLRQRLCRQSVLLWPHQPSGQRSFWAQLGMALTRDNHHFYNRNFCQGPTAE

[4] = molecular target: human TLR3 expressed on HEK293 cells (human) (UniProt O15455)
[5] = molecular target: T2, human TLR8 expressed on HEK293 cells (human) (UniProt Q9NR97)
T2 sequence: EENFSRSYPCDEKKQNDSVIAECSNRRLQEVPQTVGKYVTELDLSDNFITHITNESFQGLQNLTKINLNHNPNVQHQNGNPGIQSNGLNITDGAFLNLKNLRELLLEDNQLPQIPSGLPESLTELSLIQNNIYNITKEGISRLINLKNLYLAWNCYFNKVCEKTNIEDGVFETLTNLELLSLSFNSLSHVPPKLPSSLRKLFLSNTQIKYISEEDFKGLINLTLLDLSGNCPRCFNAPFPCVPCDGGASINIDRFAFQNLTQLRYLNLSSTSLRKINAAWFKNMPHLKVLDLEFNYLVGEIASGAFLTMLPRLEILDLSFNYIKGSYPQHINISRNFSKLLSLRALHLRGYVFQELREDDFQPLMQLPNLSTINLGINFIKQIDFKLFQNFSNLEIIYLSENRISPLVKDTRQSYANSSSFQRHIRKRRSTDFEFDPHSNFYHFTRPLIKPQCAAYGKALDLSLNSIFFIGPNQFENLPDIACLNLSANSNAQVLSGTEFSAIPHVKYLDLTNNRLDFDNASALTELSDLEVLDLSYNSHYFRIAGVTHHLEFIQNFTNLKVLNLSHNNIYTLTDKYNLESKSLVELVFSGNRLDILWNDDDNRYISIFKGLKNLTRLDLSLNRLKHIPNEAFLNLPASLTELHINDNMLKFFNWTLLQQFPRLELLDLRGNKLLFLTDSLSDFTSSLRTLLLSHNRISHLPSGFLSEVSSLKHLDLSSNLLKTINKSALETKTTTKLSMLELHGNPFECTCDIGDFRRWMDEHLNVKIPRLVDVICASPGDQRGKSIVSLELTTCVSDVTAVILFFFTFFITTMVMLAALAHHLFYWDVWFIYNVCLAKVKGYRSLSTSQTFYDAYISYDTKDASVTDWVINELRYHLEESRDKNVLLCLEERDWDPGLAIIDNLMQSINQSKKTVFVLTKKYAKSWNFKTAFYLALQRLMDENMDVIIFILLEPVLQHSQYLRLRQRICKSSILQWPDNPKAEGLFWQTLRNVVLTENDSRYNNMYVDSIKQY

[6] = molecular target: human TLR5 expressed on HEK293 cells (human) (UniProt O60602)
Sequence of human TLR5 expressed on HEK293 cells (human) (O60602 21-858): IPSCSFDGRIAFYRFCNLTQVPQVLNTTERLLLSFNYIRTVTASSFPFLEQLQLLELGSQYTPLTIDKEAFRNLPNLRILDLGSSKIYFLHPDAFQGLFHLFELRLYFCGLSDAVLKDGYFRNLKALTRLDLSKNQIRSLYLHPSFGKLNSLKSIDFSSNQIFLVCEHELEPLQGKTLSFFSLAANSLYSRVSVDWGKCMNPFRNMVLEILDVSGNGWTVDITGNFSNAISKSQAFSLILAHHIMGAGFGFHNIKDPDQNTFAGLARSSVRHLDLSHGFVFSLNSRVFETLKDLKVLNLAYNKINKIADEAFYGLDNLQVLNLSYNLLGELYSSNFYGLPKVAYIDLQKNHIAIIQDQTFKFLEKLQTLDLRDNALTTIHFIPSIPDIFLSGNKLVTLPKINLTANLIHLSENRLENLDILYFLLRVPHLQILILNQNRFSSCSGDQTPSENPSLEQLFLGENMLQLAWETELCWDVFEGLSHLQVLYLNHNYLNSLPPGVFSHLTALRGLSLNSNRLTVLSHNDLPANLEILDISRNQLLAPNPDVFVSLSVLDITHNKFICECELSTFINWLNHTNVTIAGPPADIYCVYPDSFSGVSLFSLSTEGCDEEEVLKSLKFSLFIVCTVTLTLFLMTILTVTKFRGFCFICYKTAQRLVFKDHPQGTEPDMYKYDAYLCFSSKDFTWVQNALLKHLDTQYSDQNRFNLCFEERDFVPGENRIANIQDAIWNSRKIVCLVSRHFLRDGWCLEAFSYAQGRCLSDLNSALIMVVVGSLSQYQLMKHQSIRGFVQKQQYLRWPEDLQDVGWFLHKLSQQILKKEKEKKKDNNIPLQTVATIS

[7] = molecular target: human TLR4 (MD2-CD14) expressed on HEK293 cells (human) (UniProt O00206)
Sequence of human TLR4 (MD2-CD14) expressed on HEK293 cells (human) (O00206 24-839 limits assumed, chain 1 of 3): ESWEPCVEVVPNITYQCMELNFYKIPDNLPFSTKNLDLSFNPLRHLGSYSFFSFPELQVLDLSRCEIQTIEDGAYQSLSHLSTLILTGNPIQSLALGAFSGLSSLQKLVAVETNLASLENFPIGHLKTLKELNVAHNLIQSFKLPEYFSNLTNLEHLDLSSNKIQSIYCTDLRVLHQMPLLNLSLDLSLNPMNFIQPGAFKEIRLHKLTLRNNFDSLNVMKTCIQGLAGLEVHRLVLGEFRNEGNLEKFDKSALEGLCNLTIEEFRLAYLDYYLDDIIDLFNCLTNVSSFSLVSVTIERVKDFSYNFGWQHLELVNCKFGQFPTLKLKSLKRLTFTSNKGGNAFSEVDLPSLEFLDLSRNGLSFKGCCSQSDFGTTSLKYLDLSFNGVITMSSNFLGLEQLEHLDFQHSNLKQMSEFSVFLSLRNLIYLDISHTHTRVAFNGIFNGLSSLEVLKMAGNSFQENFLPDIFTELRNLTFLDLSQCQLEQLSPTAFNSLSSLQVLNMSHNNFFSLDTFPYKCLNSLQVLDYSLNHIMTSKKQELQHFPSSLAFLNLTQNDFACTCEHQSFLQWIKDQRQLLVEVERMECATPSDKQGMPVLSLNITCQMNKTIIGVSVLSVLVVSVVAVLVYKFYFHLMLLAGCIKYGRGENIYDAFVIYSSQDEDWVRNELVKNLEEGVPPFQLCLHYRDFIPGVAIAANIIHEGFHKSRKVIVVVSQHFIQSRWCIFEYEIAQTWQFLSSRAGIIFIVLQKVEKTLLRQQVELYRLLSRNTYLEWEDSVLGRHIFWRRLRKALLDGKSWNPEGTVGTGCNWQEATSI
Sequence of human TLR4 (MD2-CD14) expressed on HEK293 cells (human) (Q9Y6Y9 19-160 limits assumed, chain 2 of 3, further chain): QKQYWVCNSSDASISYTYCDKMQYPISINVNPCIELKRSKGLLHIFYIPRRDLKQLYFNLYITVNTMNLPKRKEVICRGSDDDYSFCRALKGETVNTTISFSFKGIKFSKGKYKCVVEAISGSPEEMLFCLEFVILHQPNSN
Sequence of human TLR4 (MD2-CD14) expressed on HEK293 cells (human) (P08571 20-345 limits assumed, chain 3 of 3, further chain): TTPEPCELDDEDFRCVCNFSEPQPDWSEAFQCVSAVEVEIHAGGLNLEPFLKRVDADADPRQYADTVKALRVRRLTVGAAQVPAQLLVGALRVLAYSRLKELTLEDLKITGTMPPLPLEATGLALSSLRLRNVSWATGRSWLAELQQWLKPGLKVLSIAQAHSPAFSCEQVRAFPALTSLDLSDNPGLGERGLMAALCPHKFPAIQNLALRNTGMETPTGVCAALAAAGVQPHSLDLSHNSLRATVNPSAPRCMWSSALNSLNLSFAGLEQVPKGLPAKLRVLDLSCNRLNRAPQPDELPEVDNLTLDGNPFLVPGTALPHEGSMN

Sequence of human TLR7 expressed on HEK293 cells (human) (Q9NYK1 27-1049): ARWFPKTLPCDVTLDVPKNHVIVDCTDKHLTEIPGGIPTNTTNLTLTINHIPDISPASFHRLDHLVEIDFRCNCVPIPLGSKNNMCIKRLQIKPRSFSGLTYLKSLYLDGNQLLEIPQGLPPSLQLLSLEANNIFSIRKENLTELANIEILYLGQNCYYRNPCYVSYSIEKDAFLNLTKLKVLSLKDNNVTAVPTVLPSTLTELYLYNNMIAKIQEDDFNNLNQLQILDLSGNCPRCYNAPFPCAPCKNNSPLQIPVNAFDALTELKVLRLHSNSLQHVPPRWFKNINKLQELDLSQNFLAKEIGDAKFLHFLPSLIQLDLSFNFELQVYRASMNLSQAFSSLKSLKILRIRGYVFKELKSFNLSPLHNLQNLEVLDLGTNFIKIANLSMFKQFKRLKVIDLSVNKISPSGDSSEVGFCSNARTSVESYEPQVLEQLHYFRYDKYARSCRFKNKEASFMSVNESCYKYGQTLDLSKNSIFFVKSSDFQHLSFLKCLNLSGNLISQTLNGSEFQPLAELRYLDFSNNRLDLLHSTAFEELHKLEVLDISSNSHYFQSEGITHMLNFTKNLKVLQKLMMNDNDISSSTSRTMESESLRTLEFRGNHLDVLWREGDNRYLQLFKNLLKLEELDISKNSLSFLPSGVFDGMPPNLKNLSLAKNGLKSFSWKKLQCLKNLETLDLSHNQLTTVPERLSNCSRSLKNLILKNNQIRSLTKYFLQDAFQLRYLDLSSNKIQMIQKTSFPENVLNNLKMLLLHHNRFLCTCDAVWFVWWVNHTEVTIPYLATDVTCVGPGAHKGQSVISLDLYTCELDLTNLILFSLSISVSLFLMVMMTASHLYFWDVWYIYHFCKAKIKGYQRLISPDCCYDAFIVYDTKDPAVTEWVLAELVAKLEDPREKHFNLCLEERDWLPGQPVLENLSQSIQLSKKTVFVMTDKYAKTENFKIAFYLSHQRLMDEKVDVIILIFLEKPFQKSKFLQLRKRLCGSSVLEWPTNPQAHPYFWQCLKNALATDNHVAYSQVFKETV
Sequence of human TLR2 expressed on HEK293 cells (human) (O60603 21-784): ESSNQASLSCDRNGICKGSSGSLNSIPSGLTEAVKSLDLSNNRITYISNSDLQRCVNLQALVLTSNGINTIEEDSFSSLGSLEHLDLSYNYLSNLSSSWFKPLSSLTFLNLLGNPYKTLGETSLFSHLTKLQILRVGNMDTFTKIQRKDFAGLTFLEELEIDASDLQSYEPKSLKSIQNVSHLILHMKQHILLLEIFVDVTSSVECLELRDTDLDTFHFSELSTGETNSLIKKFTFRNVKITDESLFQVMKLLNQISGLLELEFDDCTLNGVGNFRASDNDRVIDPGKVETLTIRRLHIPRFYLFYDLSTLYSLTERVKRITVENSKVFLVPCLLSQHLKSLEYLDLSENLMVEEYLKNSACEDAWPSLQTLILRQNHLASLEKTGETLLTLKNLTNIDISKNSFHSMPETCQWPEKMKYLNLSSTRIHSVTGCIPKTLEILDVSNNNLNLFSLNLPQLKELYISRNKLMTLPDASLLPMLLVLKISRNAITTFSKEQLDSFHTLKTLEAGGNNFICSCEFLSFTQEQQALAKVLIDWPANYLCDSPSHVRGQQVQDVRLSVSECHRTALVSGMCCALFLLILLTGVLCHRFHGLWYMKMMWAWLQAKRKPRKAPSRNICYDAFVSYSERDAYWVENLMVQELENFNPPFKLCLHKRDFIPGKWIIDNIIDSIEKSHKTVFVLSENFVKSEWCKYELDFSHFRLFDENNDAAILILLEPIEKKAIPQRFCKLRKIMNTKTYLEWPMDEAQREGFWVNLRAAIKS

With “wild type YscF (from UniProt O68691 1-87)” the SEAP reporter expression in HEK293 cells, screening 1 [1] was 0.095, the SEAP reporter expression in HEK293 cells, screening 2 [1] was 0.094 and the SEAP reporter expression in HEK293 cells, screening 1 [2] was 0.283. For the same substance, the SEAP reporter expression in HEK293 cells, screening 2 [2] was 0.272, the SEAP reporter expression in HEK293 cells, screening 1 [3] was 0.075 and the SEAP reporter expression in HEK293 cells, screening 2 [3] was 0.074. The SEAP reporter expression in HEK293 cells, screening 1 [4] was 0.1, the SEAP reporter expression in HEK293 cells, screening 2 [4] was 0.093 and the SEAP reporter expression in HEK293 cells, screening 1 [5] was 0.096. The SEAP reporter expression in HEK293 cells, screening 2 [5] was 0.095, the SEAP reporter expression in HEK293 cells, screening 1 [6] was 0.136 and the SEAP reporter expression in HEK293 cells, screening 2 [6] was 0.139. It also gave an SEAP reporter expression in HEK293 cells, screening 1 [7] of 0.98 and an SEAP reporter expression in HEK293 cells, screening 2 [7] of 0.861.
